{"source": "paper PMC6092318", "about": "“Keap1–MCM3 interaction is a potential coordinator of molecular machineries of antioxidant response and genomic DNA replication in metazoa” (Scientific Reports, 2018)", "molecules": {"B1": {"name": "HA-MCM-BP (mouse, baculovirus) (natural protein, UniProt Q8R3C0 1-642, looked up)", "chain": "MPCGEDWLSHPLGIVQGFFAQNGVNPDWEKKVIEYFKEKLKENNAPKWVPSLNEVPLHYLKPNSFVKFRCMIQDMFDPEFYMGIYETVNQNTKARVLHFGKYRDVAECGPQQELDLSSPRSTTSERQTFYCVPVPGESSWVKEAYVNANQARVSPSTSYTPSRHKRSYEDDEDMDLQPSKQKEQHPGSRQAGGLGGLHWCGEPKRLETEASSGQQLNTLNLSSPFDLNFPLPGEKGPACLVKVYEDWDCFKVNDVLELYGVLSVDPVLSVLNSEERDASALLDPMECTDMAEEQRVHSPPASLVPRIHVILAQKLQHINPLLPTCLNKEESRSCQFVSNFMSELSPVRAELLGFLTHALLGDSLAAEYLILHLISTVYTRRDVLPLGKFTVNLSGCPQNSTFTEHLYRIIQHLVPASFRLQMTIENMNQLKLIPHKDYTANRLVSGLLQLPNNTSLVIDETLLEQGQLDTPGVHNVTALSNLITWQKVDYDFSYHQMEFPCNINVLITSEGRSLLPADCQIHLQPQLIPPNMEEYMNGLLSAVLPSVLNKFRIYLTLLRFLDYNLSDDITKAVEDDFVEMRKDDPQSITADDLHQLLVVARFLSLSVGQTTLSRERWLRAKQLELSRKARLQQQKSVNGNEL", "notes": "MCM-BP, mouse; cDNA cloned into pFastBac1; source: Sf9, baculovirus infected, in extract"}, "B2": {"name": "FLAG-MCM3 (mouse, wild type, baculovirus) (natural protein, UniProt P25206 1-812, looked up)", "chain": "MAGTVVLDDVELREAQRDYLDFLDDEEDQGIYQNKVRELISDNQYRLIVSVNDLRRKNEKRANRLLNNAFEELVAFQRALKDFVASIDATYAKQYEEFYIGLEGSFGSKHVSPRTLTSCFLSCVVCVEGIVTKCSLVRPKVVRSVHYCPATKKTIERRYSDLTTLVAFPSSSVYPTKDEENNPLETEYGLSVYKDHQTITIQEMPEKAPAGQLPRSVDVILDDDLVDKVKPGDRIQVVGTYRCLPGKKGCYTSGTFRTVLIACNVKQMSKDIQPAFSADDIAKIKKFSKTRSKDVFEQLARSLAPSIHGHDYVKKAILCLLLGGVERELENGSHIRGDINILLIGDPSVAKSQLLRYVLCTAPRAIPTTGRGSSGVGLTAAVTTDQETGERRLEAGAMVLADRGVVCIDEFDKMSDMDRTAIHEVMEQGRVTIAKAGIHARLNARCSVLAAANPVYGRYDQYKTPMENIGLQDSLLSRFDLLFIMLDQMDPEQDREISDHVLRMHQYRAPGEQDGDALPLGSSVDILATDDPDFTQDDQQDTRIYEKHDSLLHGTKKKKEKMVSAAFMKKYIHVAKIIKPTLTQESAAYIAEEYSRLRSQDSMSSDTARTSPVTARTLETLIRLATAHAKARMSKTVDLQDAEEAVELVQYAYFKKVLEKEKKRKKASEDESDLEDEEEKSQEDTEQKRKRRKTHAKDGESYDPYDFSEAETQMPQVHTPKTDDSQEKTDDSQETQDSQKVELSEPRLKAFKAALLEVFQEAHEQSVGMLHLTESINRNREEPFSSEEIQACLSRMQDDNQVMVSEGIVFLI", "notes": "MCM3, mouse; cDNA cloned into pFastBac1; also called WT MCM3; source: Sf9, baculovirus infected, in extract; not shown: FLAG, N-terminal, kept"}}, "key": {"[1]": {"biological_target": "FLAG-MCM3 (mouse MCM3 expressed in CHO-EBNALT85 cells) (mouse) (UniProt P25206)", "assay": "co-IP; anti-FLAG M2 beads on whole cell, nuclear and cytoplasmic extracts of FLAG-MCM3 expressing CHOEBNALT85 cells, 150 mM KCl, Western blot"}, "[2]": {"biological_target": "B2", "assay": "SEC; Superose 6 10/300 GL of the strep-Keap1 - FLAG-MCM3 tandem purified complex, 100 mM KCl buffer; densitometry of the Coomassie stained gel", "conditions": "partners not purified"}, "[3]": {"biological_target": "T1, strep-Keap1 (mouse, wild type, baculovirus) (mouse, UniProt Q9Z2X8 1-624)", "T1 construct": "Keap1, mouse; cDNA cloned into pFastBac1; also called strep tagged Keap1; strp-Keap1; source: Sf9, baculovirus infected, in extract; not shown: Strep-tag II, N-terminal, kept", "T1 sequence (Q9Z2X8 whole entry)": "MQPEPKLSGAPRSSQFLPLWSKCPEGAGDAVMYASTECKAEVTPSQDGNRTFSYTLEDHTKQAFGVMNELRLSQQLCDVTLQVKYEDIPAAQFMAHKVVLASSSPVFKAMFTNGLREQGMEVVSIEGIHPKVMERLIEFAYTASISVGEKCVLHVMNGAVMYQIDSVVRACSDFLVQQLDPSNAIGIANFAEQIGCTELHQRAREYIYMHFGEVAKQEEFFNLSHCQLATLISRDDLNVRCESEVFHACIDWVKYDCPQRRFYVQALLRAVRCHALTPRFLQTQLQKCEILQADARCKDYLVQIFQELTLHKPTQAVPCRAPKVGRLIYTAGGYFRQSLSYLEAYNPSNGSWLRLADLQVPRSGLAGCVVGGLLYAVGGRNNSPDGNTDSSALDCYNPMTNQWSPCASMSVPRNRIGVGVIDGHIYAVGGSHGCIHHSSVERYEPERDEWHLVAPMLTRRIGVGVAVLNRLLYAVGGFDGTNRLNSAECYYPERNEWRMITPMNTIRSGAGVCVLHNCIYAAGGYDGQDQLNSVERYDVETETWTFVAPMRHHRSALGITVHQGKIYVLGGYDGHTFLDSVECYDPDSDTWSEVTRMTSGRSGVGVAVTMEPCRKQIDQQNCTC", "assay": "SEC; Superose 6 10/300 GL of the strep-Keap1 - FLAG-MCM3 tandem purified complex, 100 mM KCl buffer; densitometry of the Coomassie stained gel", "conditions": "partners not purified"}}}
{"molecule": "Keap1 (endogenous, CHO cells) (natural protein)", "values": [{"measurement": "percent of soluble MCM3 and Keap1 pulled down together", "setting": "[1]", "value": "5 to 10", "unit": "%"}]}
{"molecule": "B1", "values": [{"measurement": "stoichiometry N", "setting": "[2]", "value": "~1"}]}
{"molecule": "B2", "values": [{"measurement": "stoichiometry N", "setting": "[3]", "value": "~1"}]}
